Assays:
[1] = biological target: IL-17A/F dimer (Homo sapiens (Human)) (UniProt Q16552); test: Alphascreen (protein-protein interaction assay); inhibition of IL17AF with IL-17RA
[2] = biological target: IL-17A/A dimer (Homo sapiens (Human)) (UniProt Q16552)
[3] = biological target: IL-17A/F dimer (Homo sapiens (Human)) (UniProt Q16552)
[4] = biological target: IL-17F/F dimer (Homo sapiens (Human)) (UniProt Q96PD4); test: Alphascreen (protein-protein interaction assay); inhibition of IL17FF with IL-17RC
[5] = biological target: IL-17A/A dimer (Homo sapiens (Human)) (UniProt Q16552); test: Alphascreen (protein-protein interaction assay); inhibition of IL17AA with IL-17RA

UniProt Q96PD4, sequence (Q96PD4 31-163 limits assumed): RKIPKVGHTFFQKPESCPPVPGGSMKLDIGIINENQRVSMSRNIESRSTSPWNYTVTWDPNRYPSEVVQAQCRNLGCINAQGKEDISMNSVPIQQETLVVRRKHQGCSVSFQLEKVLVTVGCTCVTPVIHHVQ

- IC50 [1]: 0.066 nM
- % inhibition of CCL20 expression (TNF + IL17A/A stimulation) in keratinocytes, SLK 0.1 µg/mL [2]: -66%
- % inhibition of CCL20 expression (TNF + IL17A/A stimulation) in keratinocytes, SLK 1 µg/mL [2]: -66%
- % inhibition of CXCL8 expression (TNF + IL17A/A stimulation) in keratinocytes, SLK 0.1 µg/mL [2]: -73%
- % inhibition of CXCL8 expression (TNF + IL17A/A stimulation) in keratinocytes, SLK 1 µg/mL [2]: -88%
- % inhibition of CCL20 expression (TNF + IL17A/F stimulation) in keratinocytes, SLK 0.1 µg/mL [3]: -75%
- % inhibition of CCL20 expression (TNF + IL17A/F stimulation) in keratinocytes, SLK 1 µg/mL [3]: -53%
- % inhibition of CXCL8 expression (TNF + IL17A/F stimulation) in keratinocytes, SLK 0.1 µg/mL [3]: -61%
- % inhibition of CXCL8 expression (TNF + IL17A/F stimulation) in keratinocytes, SLK 1 µg/mL [3]: -68%
- IC50 [4]: 0.013 nM
- IC50 [5]: 0.039 nM
Substance: sonelokimab (VHH)

From patent publication US20250251406A1
